Here are results for five molecules from PMC7765500, “Siderophore Scaffold as Carrier for Antifungal Peptides in Therapy of Aspergillus fumigatus Infections” (Journal of Fungi, 2020).

Series [1] is classed as physicochemical. To be noted: pH 7.4. The method, then:
Aliquots of 50 µL of ^68Ga-labelled conjugate (~5 µM) were added to 450 µL of phosphate-buffered saline pH 7.4 (PBS) and 500 µL of Octanol into a 1.5 mL Eppendorf tube. The mixture was vigorously shaken for 20 min at 1400 rpm in a standard vortex (MS 3, IKA, Staufen, Germany) and hereafter, 200 µL of each phase removed and measured in a gamma counter (2480 automatic gamma counter Wizard2 3’’, Perkin Elmer, Waltham, MA, USA) LogD was calculated as the ratio of octanol/water phase using Excel. (n = 3, six technical replicates)

In series [2] the test system is A. fumigatus. The series can be described thus: Uptake assay of 68Ga-labelled conjugates in A. fumigatus. It is filed as cell-based, Aspergillus fumigatus. As to conditions: iron-depleted AMM, 45 min, 37 °C. The protocol: Assays were performed as previously described. Briefly, uptake and competition assays were performed with A. fumigatus in iron-depleted and iron-replete Aspergillus minimal media (AMM), using a 96-well MultiScreen Filter Plates HTS (1 μm glass fiber filter, Merck Millipore, Darmstadt, Germany). Compounds were incubated for 45 min at 37 °C and filters measured in a gamma counter. Competition assays were performed in the same way except for pre-incubation with the iron-containing antifungal conjugates for 15 min, resulting in a competition at the MirB transporter to show specific binding to MirB.

Another series can be described thus: in vivo. Details: species or system BALB/c mice. To be noted: mouse, iv; for tissue uptake: female, BALB/c, 0.4 nmol, total radioactivity, Kidney uptake. The method, then: Stability test and biodistribution were conducted in 4–6 weeks-old female BALB/c mice (in-house breed, ZVTA Innsbruck). ^68Ga-labelled conjugates, dissolved in PBS (Ph. Eur. pH 7.4) and pH adjusted to pH 6.5 with sodium acetate, were injected via lateral tail vein using approximately 0.4 nmol of compound and a volume of 150 µL. For biodistribution, the same procedure was applied except for different time points of 45 and 90 min. Hereafter the animals were euthanized by cervical dislocation and the organs (blood, spleen, pancreas, stomach, liver, kidneys, heart, lung, muscle, femur) were removed and weighed. The activity of the samples was measured in a gamma counter and the results were calculated as a percentage of injected dose per gram tissue (%ID/g).

Series [3] has as its system A. fumigatus (ATCC 46645). It is filed as cell-based, Aspergillus fumigatus. As to conditions: AMM. The method, then:
(§1) Susceptibility tests were performed according to CLSI guidelines with slight modifications. In brief, 96-well plates (Greiner Bio-One GmbH) were prepared with 100 μL of 2 × AMM (Aspergillus minimal medium) or 0.2 × Potato Dextrose Broth (PDB) containing 3 × 10^4 spores of A. fumigatus (ATCC 46645) per well. An amount of 100μL antifungal, dissolved in water, was added to get a final concentration of 1 × AMM/0.1 × PDB medium and antifungal concentration ranging from 0.031–16 μg/mL.

In series [4] the test system is A. fumigatus. Details: method as in PMID 26956772. As to conditions: 24 h, 37 °C, 0.1 × Vogel's medium; cited from earlier work.
The subject of series [5] is A. fumigatus (ATCC 46645). It is filed as cell-based, Aspergillus fumigatus. The protocol: as §1
For series [6], the system named is A. fumigatus. Details: method as in PMID 31405865. As to conditions: RPMI medium, 48 h; cited from earlier work.
Setting [7] is: Biodistribution Intestine 45 min.
The mark [8] stands for this setting: Biodistribution Intestine 90 min.
[9] abbreviates: Biodistribution Pancreas 45 min.
Setting [10] is: Biodistribution Pancreas 90 min.

Converted amounts (≈) assume the structure as drawn. Read-outs that look alike come from different tables or passages of the source. Square brackets hold non-standard residues; d marks the D form. Peptide text beside a SMILES is read from it. Orn(N5-OH,N5-Ac) = CC(=O)N(O)CCC[C@H](N)C(=O)O

Consider `CC(=O)N[C@@H]1CCCN(O)C(=O)/C=C(/C)CCOC(=O)[C@H](NC(=O)CCC(=O)N[C@H](CCCNC(=N)N)C(=O)N[C@H](CCCCN)C(=O)N[C@H](CCCCN)C(=O)N[C@H](Cc2c[nH]c3ccccc23)C(=O)N[C@H](Cc2ccccc2)C(=O)N[C@H](Cc2c[nH]c3ccccc23)C(N)=O)CCCN(O)C(=O)/C=C(/C)CCOC(=O)[C@H](NC(C)=O)CCCN(O)C(=O)/C=C(/C)CCOC1=O` (stereo in doubt) [[^68Ga]Ga-DAFC-D-PAF26, metal not drawn], for which, in series [1], the logD was -3.35 ± 0.16. Moreover, the “Uptake into A. fumigatus hyphae normalized to uptake of [68Ga]Ga-TAFC” value with A. fumigatus [2] is reported as 137%. In addition, the tissue uptake in “in vivo” came to 150 %ID/g. The tissue uptake at 0.75 h in the series “in vivo” (Biodistribution Blood 45 min) turned out to be 1.08 ± 0.12 %ID/g; in the series “in vivo” (Biodistribution Femur 45 min) it was 1.47 ± 0.09 %ID/g; in the series “in vivo” (Biodistribution Heart 45 min), 0.76 ± 0.02 %ID/g; in “in vivo” (setting [7]), 0.63 ± 0.02 %ID/g; in “in vivo” (Biodistribution Kidneys 45 min), 150 ± 18 %ID/g; in the series “in vivo” (Biodistribution Liver 45 min), 20.8 ± 0.58 %ID/g. Besides, the tissue uptake at 0.75 h in “in vivo” (Biodistribution Lung 45 min) was 2.16 ± 0.19 %ID/g; in “in vivo” (Biodistribution Muscle 45 min), 0.42 ± 0.18 %ID/g; in the series “in vivo” (setting [9]), 0.41 ± 0.02 %ID/g; in the series “in vivo” (Biodistribution Spleen 45 min) it was 2.21 ± 0.15 %ID/g; in “in vivo” (Biodistribution Stomach 45 min), 0.45 ± 0.17 %ID/g. The tissue uptake at 1.5 h amounted to 0.4 ± 0.04 %ID/g in the series “in vivo” (Biodistribution Blood 90 min); 1.11 ± 0.16 %ID/g in “in vivo” (Biodistribution Femur 90 min); 0.6 ± 0.23 %ID/g in the series “in vivo” (Biodistribution Heart 90 min); 0.56 ± 0.03 %ID/g in the series “in vivo” (setting [8]); 158 ± 25.6 %ID/g in the series “in vivo” (Biodistribution Kidneys 90 min); 23 ± 0.89 %ID/g in the series “in vivo” (Biodistribution Liver 90 min). The tissue uptake at 1.5 h in the series “in vivo” (Biodistribution Lung 90 min) amounted to 1.31 ± 0.23 %ID/g; in the series “in vivo” (Biodistribution Muscle 90 min), 0.28 ± 0.1 %ID/g; in the series “in vivo” (setting [10]), 0.26 ± 0.03 %ID/g; in “in vivo” (Biodistribution Spleen 90 min), 1.97 ± 0.21 %ID/g; in the series “in vivo” (Biodistribution Stomach 90 min) it was 0.35 ± 0.03 %ID/g.
As to `CC(=O)NC1CCCN(O)C(=O)/C=C(/C)CCOC(=O)C(NC(=O)[C@@H](Cc2ccccc2)NC(=O)[C@H](CC(C)C)NC(=O)[C@H](CC(N)=O)NC(C)=O)CCCN(O)C(=O)/C=C(/C)CCOC(=O)C(NC(C)=O)CCCN(O)C(=O)/C=C(/C)CCOC1=O` (stereo in doubt) [[^68Ga]Ga-DAFC-NLF-Ac, metal not drawn], in series [1], the logD was -0.8 ± 0.08. For the same molecule, the “Uptake into A. fumigatus hyphae normalized to uptake of [68Ga]Ga-TAFC” value in the series with A. fumigatus [2] came to 35%. For the same molecule, the tissue uptake in the series “in vivo” worked out at 36 %ID/g. Also, the tissue uptake at 0.75 h in the series “in vivo” (Biodistribution Blood 45 min) was found to be 0.46 ± 0.1 %ID/g; in the series “in vivo” (Biodistribution Femur 45 min) it was 0.16 ± 0.05 %ID/g; in the series “in vivo” (Biodistribution Heart 45 min), 0.22 ± 0.02 %ID/g; in the series “in vivo” (setting [7]), 3.09 ± 0.03 %ID/g; in the series “in vivo” (Biodistribution Kidneys 45 min) it was 35.7 ± 1.73 %ID/g; in the series “in vivo” (Biodistribution Liver 45 min), 0.85 ± 0.51 %ID/g. Moreover, the tissue uptake at 0.75 h in “in vivo” (Biodistribution Lung 45 min) is 0.62 ± 0.01 %ID/g; in “in vivo” (Biodistribution Muscle 45 min) it was 0.18 ± 0.08 %ID/g; in the series “in vivo” (setting [9]) it was 0.21 ± 0.06 %ID/g; in the series “in vivo” (Biodistribution Spleen 45 min), 0.35 ± 0.1 %ID/g; in “in vivo” (Biodistribution Stomach 45 min) it was 0.69 ± 0.31 %ID/g. Moreover, the tissue uptake at 1.5 h is 0.13 ± 0.1 %ID/g in the series “in vivo” (Biodistribution Blood 90 min); 0.59 ± 0.5 %ID/g in “in vivo” (Biodistribution Femur 90 min); 0.12 ± 0.11 %ID/g in the series “in vivo” (Biodistribution Heart 90 min); 4.85 ± 1.78 %ID/g in “in vivo” (setting [8]); 39.9 ± 2.66 %ID/g in “in vivo” (Biodistribution Kidneys 90 min); 0.44 ± 0.05 %ID/g in “in vivo” (Biodistribution Liver 90 min). In addition, the tissue uptake at 1.5 h in “in vivo” (Biodistribution Lung 90 min) was determined as 0.32 ± 0.06 %ID/g; in the series “in vivo” (Biodistribution Muscle 90 min) it was 0.17 ± 0.07 %ID/g; in the series “in vivo” (setting [10]) it was 0.1 ± 0.06 %ID/g; in “in vivo” (Biodistribution Spleen 90 min), 0.24 ± 0.07 %ID/g; in the series “in vivo” (Biodistribution Stomach 90 min), 2.04 ± 0.74 %ID/g.
Molecule `CC(=O)N[C@@H]1CCCN(O)C(=O)/C=C(/C)CCOC(=O)[C@H](NC(=O)CCC(=O)N[C@@H](CC(N)=O)C(=O)N[C@@H](CC(C)C)C(=O)N[C@H](Cc2ccccc2)C(=O)O)CCCN(O)C(=O)/C=C(/C)CCOC(=O)[C@H](NC(C)=O)CCCN(O)C(=O)/C=C(/C)CCOC1=O` (stereo in doubt) [[^68Ga]Ga-DAFC-succ-NLF, metal not drawn] registered a logD in series [1] of -2.84 ± 0.17. In addition, the “Uptake into A. fumigatus hyphae normalized to uptake of [68Ga]Ga-TAFC” value in the series with A. fumigatus [2] stood at 13%. The tissue uptake at 0.75 h in the series “in vivo” (Biodistribution Blood 45 min) came out at 0.41 ± 0.14 %ID/g; in “in vivo” (Biodistribution Femur 45 min), 1.76 ± 0.17 %ID/g; in the series “in vivo” (Biodistribution Heart 45 min) it was 0.18 ± 0.09 %ID/g; in “in vivo” (setting [7]), 0.4 ± 0.1 %ID/g; in the series “in vivo” (Biodistribution Kidneys 45 min), 3.27 ± 0.61 %ID/g; in “in vivo” (Biodistribution Liver 45 min), 0.37 ± 0.07 %ID/g. The tissue uptake at 0.75 h in the series “in vivo” (Biodistribution Lung 45 min) was determined as 0.61 ± 0.14 %ID/g; in the series “in vivo” (Biodistribution Muscle 45 min) it was 0.08 ± 0.01 %ID/g; in “in vivo” (setting [9]) it was 0.14 ± 0.05 %ID/g; in the series “in vivo” (Biodistribution Spleen 45 min), 0.23 ± 0.04 %ID/g; in “in vivo” (Biodistribution Stomach 45 min), 0.19 ± 0.09 %ID/g. Also, the tissue uptake at 1.5 h in the series “in vivo” (Biodistribution Blood 90 min) was 0.05 ± 0.03 %ID/g; in the series “in vivo” (Biodistribution Femur 90 min), 0.31 ± 0.13 %ID/g; in “in vivo” (Biodistribution Heart 90 min), 0.05 ± 0.02 %ID/g; in the series “in vivo” (setting [8]) it was 0.36 ± 0.07 %ID/g; in “in vivo” (Biodistribution Kidneys 90 min) it was 2.93 ± 0.38 %ID/g; in “in vivo” (Biodistribution Liver 90 min) it was 0.3 ± 0.05 %ID/g. The tissue uptake at 1.5 h in “in vivo” (Biodistribution Lung 90 min) was determined as 0.21 ± 0.05 %ID/g; in the series “in vivo” (Biodistribution Muscle 90 min) it was 0.11 ± 0.14 %ID/g; in “in vivo” (setting [10]) it was 0.06 ± 0.02 %ID/g; in “in vivo” (Biodistribution Spleen 90 min) it was 0.19 ± 0.03 %ID/g; in the series “in vivo” (Biodistribution Stomach 90 min), 0.11 ± 0.01 %ID/g.
As to `N=C(N)NCCC[C@@H](N)C(=O)N[C@H](CCCCN)C(=O)N[C@H](CCCCN)C(=O)N[C@H](Cc1c[nH]c2ccccc12)C(=O)N[C@H](Cc1ccccc1)C(=O)N[C@H](Cc1c[nH]c2ccccc12)C(N)=O` [H2N-D-PAF26-NH2] (H-[dR][dK][dK][dW][dF][dW]-NH2), in series [3] (0.031–16 µg/mL tested), the “Antifungal activity (in words)” value is “no inhibition could be observed”. Moreover, the “MIC 24 h” value in series [3] (37 °C, 24 h) is given as greater than 16 µg/mL; in series [5] (0.1 × PDB, 37 °C, 24 h) it was 8 µg/mL (≈ 8.43 µM). Moreover, the “MIC 48 h” value in series [3] (37 °C, 48 h) is listed as greater than 16 µg/mL; in series [5] (0.1 × PDB, 37 °C, 48 h), 8 µg/mL; in series [5] (ATCC 46645, 48 h) it was 8.4 µM. In the series with A. fumigatus [4], the IC50 was 8 µM. Besides, in series [5] (0.1 × PDB, incubation time not given), the “MIC / growth inhibition” value is 8 µg/mL (≈ 8.43 µM).
For the molecule `CC(=O)N([O-])CCC[C@@H]1NC(=O)[C@H](CCCN([O-])C(C)=O)NC(=O)[C@H](CCCN([O-])C(C)=O)NC(=O)[C@@H](Cc2ccccc2)NC(=O)[C@H](CC(C)C)NC(=O)[C@H](CC(N)=O)NC1=O.[Al+3]` [VL-2397] (cyclo(L[dF][Orn(N5-OH,N5-Ac)][Orn(N5-OH,N5-Ac)][Orn(N5-OH,N5-Ac)]N)), the minimum inhibitory concentration (MIC) with A. fumigatus [6] is given as 1 µg/mL.
